Assay [1] has as its target T1, human BTLA (Uniprot Q7Z6A9) expressed on cells (human, UniProt Q7Z6A9 31-289).
T1 construct: whole, on cells; also called huBTLA-overexpressing Expi293 cells
Put plainly: flow cytometry blocking on huBTLA-overexpressing Expi293 cells; competitor human HVEM-mouse IgG2a Fc. How it is done:
(§1) Expi293 cells stably overexpressing huBTLA were incubated with chimeric anti-BTLA antibody 83F2 or 86B7 for 30 minutes at 4° C. The cells were washed, and then incubated with human HVEM-mouse IgG2a Fc recombinant protein (Acro Biosystems, cat #HVM-H5255) at […] concentration for 20 minutes at 4° C. The human HVEM bindings were detected by goat anti-mouse Alexa 488 secondary antibody (ThermoFisher, cat #A-11029). Cells were washed and acquired by flow cytometry with Attune. Data were analyzed with FlowJo software. BTLA binding is represented as MFI.
(A flow cytometer gives signals particle by particle.)

The target in assay [2] is T2, rhesus monkey BTLA extracellular domain protein with His tag (Sino Biological, cat #90250-C08H) (rhesus monkey, UniProt G7MKA9 31-157).
T2 construct: extracellular domain; Bought protein; also called His-tag-rhesus monkey BTLA; not shown: His tag
T2 sequence: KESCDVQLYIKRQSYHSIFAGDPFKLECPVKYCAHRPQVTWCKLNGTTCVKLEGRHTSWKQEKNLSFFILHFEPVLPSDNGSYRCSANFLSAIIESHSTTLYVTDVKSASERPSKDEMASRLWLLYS
Put plainly: ELISA, rhesus monkey BTLA coated at 0.333 ug/mL, anti-human IgG Fc-AP detection. How it is done: (§2) BTLA binding of purified recombinant chimeric antibodies by ELISA: The huBTLA and rhesus monkey BTLA antigen binding ELISA was performed on the purified recombinant chimeric antibodies. Briefly, 384-well, clear flat bottom high binding plates (Corning, cat #3700) were coated overnight at 4° C. with 0.333 μg/mL of huBTLA or rhesus monkey BTLA in PBS. The following purified process was performed as described in ELISA binding assay in Example 2, except that the secondary antibody was goat anti human IgG Fc-AP (Southern Biotech, cat #2014-04).

Assay [3] deals with T1, human BTLA (Uniprot Q7Z6A9) expressed …. As to the kind of experiment: cell-based or functional assay.
For assay [4], the target named is T3, huBTLA as coated in the binding ELISA of Example 3 (tag not stated) (human, UniProt Q7Z6A9 31-157).
T3 construct: Detection was with anti-human IgG Fc
T3 sequence: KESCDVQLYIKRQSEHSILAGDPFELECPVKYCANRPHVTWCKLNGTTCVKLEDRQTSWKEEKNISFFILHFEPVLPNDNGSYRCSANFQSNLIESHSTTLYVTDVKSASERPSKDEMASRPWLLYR
Put plainly: ELISA, plate coated with huBTLA, detection with goat anti-human IgG Fc-AP, OD405. How it is done:
as §2
(In general: ELISA stands for enzyme-linked immunosorbent assay.)

Assay [5] concerns the target T4, human BTLA extracellular domain with C-terminal mouse IgG2a Fc tag (human; mouse, UniProt Q7Z6A9 31-157).
T4 construct: also called huBTLA with mIgG2a Fc tag; not shown: mouse IgG2a Fc, C-terminal
T4 sequence: T3 sequence
Put plainly: blocking ELISA, huBTLA-mIgG2a Fc coated; competitor huHVEM-His (2 ug/ml). How it is done:
HVEM blocking by purified recombinant chimeric antibodies by ELISA: Human HVEM (huHVEM) blocking ELISA was performed on purified recombinant chimeric anti-BTLA antibodies. Briefly, 384-well, clear flat bottom high binding plates (Corning, cat #3700) were coated overnight at 4° C. with 0.333 μg/mL purified huBTLA with mIgG2a Fc tag in PBS (coating solution). After removing the coating solution, the plates were blocked by adding blocking buffer and incubated at 37° C. for 1 hour. Plates were then washed 3 times with wash buffer. Serial dilution of purified chimeric antibodies in PBS were added to individual well followed by incubation at 37° C. for 1 hour. Plates were washed 3 times with wash buffer. Then 30 μL per well of 2 μg/ml human HVEM with His tag (Sino Biological, cat #10334-H08H) in assay buffer was added into the reaction and incubated for 1 hour. Plates were washed 3 times with wash buffer. Then 30 μL per well of mouse anti-his-AP (Southern Biotech, cat: 4603-04) at 1:500 dilution in ELISA diluent was added, and incubated at 37° C. for 30 min, then the plates were washed 5 times with wash buffer and developed for 30 minutes with 30 μL per well of pNPP substrate. Plates were analyzed with a Bio-TEK at 405 nm. The blocking IC₅₀ value represents the antibody concentration that inhibited 50% of huHVEM binding to coated human BTLA.

Assay [6] deals with T3, huBTLA as coated in the binding ELISA …. As to the kind of experiment: ELISA, huBTLA coated at 0.333 ug/mL, anti-human IgG Fc-AP detection. The procedure:
as §2

Assay [7] concerns the target T2, rhesus monkey BTLA extracellular domain …. Put plainly: ELISA, plate coated with rhesus monkey BTLA, detection with goat anti-human IgG Fc-AP, OD405. The procedure: as §2
The target of assay [8] is T5, human BTLA extracellular domain with C-terminal 10xHis tag (human, UniProt Q7Z6A9 31-157).
T5 construct: also called HuBTLA-His; His-tag-huBTLA
T5 sequence: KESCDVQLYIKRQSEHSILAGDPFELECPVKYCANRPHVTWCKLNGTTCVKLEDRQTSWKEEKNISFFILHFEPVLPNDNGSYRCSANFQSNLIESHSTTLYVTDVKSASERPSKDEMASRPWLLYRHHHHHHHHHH
Put plainly: BLI (Octet RED96), antibody captured on AHC biosensor, His-tag-huBTLA in solution, 1:1 model. The procedure:
(§3) The following kinetic assay was performed using anti-human IgG Fc capture (AHC) biosensors (ForteBio) in kinetics buffer (PBS, 0.1% Tween-20 and 1% bovine serum albumin): (a) antibody (2 μg/mL) for 300 sec, (b) baseline for 120 sec, (c) association with purified His-tag-huBTLA (2.5, 0.5 and 0 μg/mL) and His-tag-rhesus monkey BTLA (Sino Biologcal, cat #90250-C08H) (2.5, 0.5 and 0 μg/mL) for 420 sec and (d) dissociation for 1200 sec. Data fitting and analysis was performed with Octet data analysis software 8.0 (ForteBio) using a 1:1 binding model after Savitzky-Golay filtering.
(In general: In BLI a coated tip is dipped into the sample, and binding shifts an interference pattern.)

Assay [9] addresses T1, human BTLA (Uniprot Q7Z6A9) expressed …. Put plainly: flow cytometry on Expi293 cells stably overexpressing huBTLA, PE anti-human Fc. The text has this: To examine the binding of the chimeric anti-BTLA antibodies to huBTLA overexpressing cells, Expi293 cells stably overexpressing huBTLA were used to perform FACS analysis. Briefly, the coding sequence of huBTLA (Uniprot, Q7Z6A9) was cloned into a lentiviral vector and the recombinant virus was packaged according to the instruction of the virus packaging kit (Lenti-X™ Packaging Single Shots, Cat #631275, Takada). The Expi293 cells were transduced with the recombinant virus.
(§4) Expi293 cells stably overexpressing huBTLA were incubated with the chimeric anti-BTLA antibodies 83F2 or 86B7 in PBS containing 0.5% BSA, 1 mM EDTA, and 0.1% sodium azide (FACS buffer) for 30 minutes at 4° C. The cells were washed, and then incubated with 10 nM phycoerythrin (PE) conjugated anti-Human Fc Ab (BioLegend, cat #409304) for 20 minutes at 4° C. Cells were washed and then analyzed by flow cytometry with Attune (ThermoFisher Scientific). Data were analyzed with FlowJo software. Antibody binding is represented as median fluorescence intensity (MFI).

Assay [10] concerns the target T5, human BTLA extracellular domain with …. Put plainly: BLI (Octet RED96), antibody on AHC biosensor, His-tag-huBTLA in solution; column head prints nM, but Koff/Kon shows the values are in M. How it is done: as §3
(§5) Binding affinities (monovalent Kd) of humanized anti-BTLA antibodies were determined using Biolayer interferometry on the Octet RED96 instrument (ForteBio) as described above in Example 3, except for (c) association with His-tag-huBTLA ([…]) for 420 sec.

The target of assay [11] is T1, human BTLA (Uniprot Q7Z6A9) expressed …. Put plainly: cell-based or functional assay. The source holds these as a separate data set.
The target is the same in assay [12]. As to the kind of experiment: flow cytometry on huBTLA-overexpressing Expi293 cells, MFI. How it is done: as §4
FACS based binding assays of humanized anti-BTLA antibodies were performed as described above in Example 3.

For assay [13] the target is unchanged. As to the kind of experiment: flow cytometry blocking assay on huBTLA-overexpressing Expi293 cells, antibody titrated, soluble human HVEM-mouse IgG2a Fc detected. How it is done:
as §1
FACS based blocking assays of humanized anti-BTLA antibodies were performed as described above in Example 3.

Assay [14] addresses T5, human BTLA extracellular domain with …. Put plainly: BLI (Octet RED96), antibody on AHC biosensor, His-tag-huBTLA in solution. How it is done: as §3, §5
The target of assay [15] is T1, human BTLA (Uniprot Q7Z6A9) expressed …. As to the kind of experiment: flow cytometry blocking assay, Expi293-huBTLA cells pre-incubated with titrated SB2003-12, then His-mouse HVEM (concentration not given) and PE anti-His antibody. The procedure:
(§6) Cells were washed and stained with PE conjugated anti-His antibody (Thermofisher Scientific, CAT: TA150130). For antibody blocking assay, the exemplary humanized anti-BTLA antibody SB2003-12 was pre-incubated with the cell line followed by mouse HVEM and anti-His antibody staining. Cells were washed and fixed with 2% PFA and were analyzed by flow cytometry with Attune. MFI of HVEM staining was analyzed with FlowJo software.

The target of assay [16] is T6, extracellular domain of human BTLA with FAS, expressed on Jurkat cells (human, UniProt Q7Z6A9 31-157; P25445 174-335, limits assumed).
T6 sequence (looked up): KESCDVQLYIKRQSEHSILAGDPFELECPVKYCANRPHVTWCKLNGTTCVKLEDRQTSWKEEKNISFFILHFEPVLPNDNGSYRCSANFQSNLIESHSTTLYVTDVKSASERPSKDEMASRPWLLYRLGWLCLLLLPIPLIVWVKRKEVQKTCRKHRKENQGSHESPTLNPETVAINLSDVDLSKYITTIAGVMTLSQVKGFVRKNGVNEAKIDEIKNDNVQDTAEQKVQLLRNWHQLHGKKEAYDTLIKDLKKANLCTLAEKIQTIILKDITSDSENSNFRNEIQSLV
Put plainly: cell-based or functional assay.

Assay [17] has as its target T1, human BTLA (Uniprot Q7Z6A9) expressed …. As to the kind of experiment: flow cytometry, His-mouse HVEM on Expi293-huBTLA cells, PE anti-His antibody, MFI. How it is done:
as §6

The record followed here is US20260035464A1 (STAIDSON BIOPHARMA, published 2026).

B1: chimeric anti-BTLA antibody 83F2 (antibody, V domains shown)
VH: QVQFQQSGAELARPGASVKLSCKASGYTFTDFWIQWVKQRPGQGLEWIGTIYPGDGDTRENQKFKGRATLTADKSSSTAYMQLSSLESDDSAVYYCARGNGNSWFAYWGQGTLVTVSA
VL: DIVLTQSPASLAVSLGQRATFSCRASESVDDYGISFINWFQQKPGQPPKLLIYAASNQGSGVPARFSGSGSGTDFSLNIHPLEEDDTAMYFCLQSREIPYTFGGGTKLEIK
With B1, the IC50 in [1] came out at 0.656 nM; in [5] it was 1.24 nM. Further, the EC50 came to 0.0542 nM in assay [2], 0.0564 nM in [6] and 1.85 nM in assay [9]. Further, the “EC50 of recovery of IL-2 production, Raji-HVEM/Jurkat-BTLA coculture” value in assay [3] was determined as 1.85 nM. Moreover, the “EC50 (read off the curve)” value in assay [4] and in assay [7] was about 0.4 nM each time. Also, the equilibrium dissociation constant (Kd) in assay [8] was 2.91 nM. In assay [8], this molecule came in with a koff of 0.000548 s⁻¹. The same molecule showed a kon in assay [8] of 188000 M⁻¹ s⁻¹.

B2: humanized anti-BTLA antibody SB2003-12 (antibody, V domains shown)
VH: QVTLKESGPTLVKPTQTLTLTCTFSGFSLSTFGMGVSWIRQPPGKALEWLAHIYWDDDKRFNPSLKSRLTITKDTSKNQVVLTMTNMDPVDTATYYCAHGNWDGETYFDYWGQGTLVTVSS
VL: DVVMTQSPLSLPVTLGQPASISCKSTQSLLDSDGKTYLNWLQQRPGQSPRSLIYLVSKLDSGVPDRFSGSGSGTDFTLKISRVEAEDVGVYYCWQGTHFPWTFGQGTKVEIK
For B2, the affinity in [10], expressed as Kd, was 0.198 nM. The “EC50 of recovery of IL-2 production, Raji-HVEM/primary human T cell coculture” value in [11] was 4.91 nM. In assay [12], the “EC50 (read off the curve)” value was about 0.8 nM. Moreover, the “IC50 (read off the curve)” value in [13] is about 0.4 nM. In [14], this molecule had an off-rate constant (koff) of 8.05e-05 s⁻¹ and a kon of 418000 M⁻¹ s⁻¹. The “IC50 (read off the curve)” value in [15] is about 2 nM. Also, the “EC50 of inhibition of huHVEM-Fc-induced apoptosis, Jurkat-huBTLA-FAS cells (ATP luminescence)” value in assay [16] was 0.0614 nM.

B3: His-mouse HVEM protein (Sino Biological, cat #10567-M03H) (ligand, UniProt Q80WM9 39-206, looked up)
chain: QPSCRQEEFLVGDECCPMCNPGYHVKQVCSEHTGTVCAPCPPQTYTAHANGLSKCLPCGVCDPDMGLLTWQECSSWKDTVCRCIPGYFCENQDGSHCSTCLQHTTCPPGQRVEKRGTHDQDTVCADCLTGTFSLGGTQEECLPWTNCSAFQQEVRRGTNSTDTTCSSQ
notes: Bought protein; also called musHVEM; not shown: His tag
In the case of B3, in assay [17], the “EC50 (read off the curve)” value was about 2 nM.

For orientation: IC50 means the midpoint of a concentration-inhibition curve. As a reminder, the EC50 is the concentration that produces a half-maximal response. A word on the EC50 (read off the curve): it is the concentration at which the effect is half-maximal. In general, Kd refers to a measure of binding affinity in units of concentration. For orientation: koff means the first-order rate constant of dissociation. By kon is commonly meant the second-order rate constant of association.
